Experimental data: patent US20140057807A1 (UNIVERSITY OF CHICAGO, published 2014)

Legend:
[1] = biological target: T1, yeast small ubiquitin-like modifier protein (yeast, UniProt Q12306 3-98 = SUMO); test: SPR (monobody on the chip via His-tag, target flowed); estimated Kd
T1 construct: GST fusion in most phage ELISAs, His-tagged or tag-cleaved elsewhere; also called ySUMO; yeast SUMO
Protocol: (§1) Cradle molecules purified as described above were immobilized via His-tag to an NTA surface using a Biacore™ 2000 instrument so that the theoretical maximum response (Rₘₐₓ) from target binding was 100-200 RU. Target protein at varying concentrations was then flowed over the surface at a flow rate of 30 μL/min and the binding signal recorded. Fitting of kinetic traces was carried out using the BIAevaluation software. For equilibrium experiments, the equilibrium binding response was recorded for multiple target concentrations and fit to a simple 1:1 saturation binding curve.

[2] = biological target: T1, yeast small ubiquitin-like modifier …; test: SPR
Protocol: as §1

[3] = biological target: T1, yeast small ubiquitin-like modifier …; test: SPR; column 'Estimated Kd (nM)'
In short: (§2)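 Binding was measured by surface plasmon resonance on a Biacore 2000, with purified His-tagged molecules captured on an NTA surface to a theoretical maximum target response of 100-200 RU. Target was passed over at several concentrations at 30 μL/min while the binding signal was recorded. Kinetic fits were made in BIAevaluation software, or equilibrium responses at multiple concentrations were fit to a 1:1 saturation binding curve. The estimated Kd came from one of these two approaches.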

[4] = biological target: T1, yeast small ubiquitin-like modifier …; test: SPR; column 'Estimated Kd (nM)' [Continued]
In short: as §2

[5] = biological target: T1, yeast small ubiquitin-like modifier …; test: SPR (Biacore 2000), monobody immobilised via His-tag on NTA surface, ySUMO flowed over it
Protocol: as §1

[6] = biological target: human ubiquitin (human, UniProt P0CG48 1-76); test: phage display selection hit, BL1 library

T1 sequence (Q12306 3-98 limits assumed): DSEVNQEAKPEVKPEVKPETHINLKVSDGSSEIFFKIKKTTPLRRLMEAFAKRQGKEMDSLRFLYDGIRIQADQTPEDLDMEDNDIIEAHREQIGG

B1: Clone# 1 (ySUMO Monobodies) (designed binder)
chain: VSSVPTKLEVVAATPTSLLISWDASSSSVSYYRITYGETGGNSPVQEFTVPGSSSTATISGLSPGVDYTITVYAYYSYYDIYYAVSPSSINYRT
notes: recovered against ySUMO from the SUMO-targeted library
Kd [1]: 39 nM

B2: Clone# 2 (ySUMO Monobodies) (designed binder)
chain: VSSVPTKLEVVAATPTSLLISWDASSSSVSYYRITYGETGGNSPVQEFTVPGSSSTATISGLSPGVDYTITVYAYYSEEFFDYAVSPSSINYRT
notes: as for B1
Kd [1]: 194 nM

B3: Clone# 3 (ySUMO Monobodies) (designed binder)
chain: VSSVPTKLEVVAATPTSLLISWDASSSSVSYYRITYGETGGNSPVQEFTVPGSSSTATISGLSPGVDYTITVFAYYSEEFFDYAYSPSSINYRT
notes: as for B1
Kd [1]: 435 nM

B4: Clone# 4 (ySUMO Monobodies) (designed binder)
chain: VSSVPTKLEVVAATPTSLLISWDASSSSVSYYRITYGETGGNSPVQEFTVPGSSSTATISGLSPGVDYTITVYAYYSDDFLDFAFSPSSINYRT
notes: as for B1
Kd [1]: 3300 nM

B5: Clone# 5 (ySUMO Monobodies) (designed binder)
chain: VSSVPTKLEVVAATPTSLLISWDASSSSVSYYRITYGETGGNSPVQEFTVPGSSSTATISGLSPGVDYTITVYAYYSYYNIFFADSPSSINYRT
notes: as for B1
Kd [1]: 112 nM

B6: ySMB-6 (designed binder)
chain: VSSVPTKLEVVAATPTSLLISWDASSSSVSYYRITYGETGGNSPVQEFTVPSYSSTATISGLSPGVDYTITVYAYWEFEYGYWSYSPISINYRT
notes: variable loops only; library YSGW
Kd [2]: 166 nM | Kd [3]: 166 nM

B7: ySMB-7 (designed binder)
chain: VSSVPTKLEVVAATPTSLLISWDASSSSVSYYRITYGETGGNSPVQEFTVPGSSSTATISGLSPGVDYTITVYAYQEWSYGWSSESPISINYRT
notes: as for B6
Kd [2]: 800 nM | Kd [3]: 800 nM

B8: ySMB-69 (designed binder)
chain: VSSVPTKLEVVAATPTSLLISWDASSSSVSYYRITYGETGGNSPVQEFTVPGSSSTATISGLSPGVDYTITVYAYYSTYWYDWSGSPISINYRT
notes: as for B6
Kd [4]: 138 nM

B9: ySMB-71 (designed binder)
chain: VSSVPTKLEVVAATPTSLLISWDASSSSVSYYRITYGETGGNSPVQEFTVPGSSSTATISGLSPGVDYTITVYAYYVGDGYYWSESPISINYRT
notes: as for B6
Kd [4]: 230 nM

B10: ySMB-74 (designed binder)
chain: VSSVPTKLEVVAATPTSLLISWDASSSSVSYYRITYGETGGNSPVQEFTVPGSSSTATISGLSPGVDYTITVYAYYYFYDYWMAYSPISINYRT
notes: as for B6
Kd [4]: 544 nM

B11: ySMB-90 (designed binder)
chain: VSSVPTKLEVVAATPTSLLISWDASSSSVSYYRITYGETGGNSPVQEFTVPGSSSTATISGLSPGVDYTITVYAYYYSYYYSYSYSPISINYRT
notes: variable loops only; library YS
Kd [4]: 320 nM

B12: ySMB-ST2 (designed binder)
chain: VSSVPTKLEVVAATPTSLLISWDASSSSVSYYRITYGETGGNSPVQEFTVPGSSSTATISGLSPGVDYTITVYAYYSEEFFDYAVSPSSINYRT
Kd [5]: 194 nM

B13: ySMB-ST3 (designed binder)
chain: VSSVPTKLEVVAATPTSLLISWDASSSSVSYYRITYGETGGNSPVQEFTVPGSSSTATISGLSPGVDYTITVFAYYSEEFFDYAYSPSSINYRT
Kd [5]: 435 nM

B14: ySMB-ST4 (designed binder)
chain: VSSVPTKLEVVAATPTSLLISWDASSSSVSYYRITYGETGGNSPVQEFTVPGSSSTATISGLSPGVDYTITVYAYYSDDFLDFAFSPSSINYRT
Kd [5]: 3300 nM

B15: ySMB-ST5 (designed binder)
chain: VSSVPTKLEVVAATPTSLLISWDASSSSVSYYRITYGETGGNSPVQEFTVPGSSSTATISGLSPGVDYTITVYAYYSYYNIFFADSPSSINYRT
Kd [5]: 112 nM

B16: ySMB-ST1 (designed binder)
chain: VSSVPTKLEVVAATPTSLLISWDASSSSVSYYRITYGETGGNSPVQEFTVPGSSSTATISGLSPGVDYTITVYAYYSYYDIYYAVSPSSINYRT
Kd [5]: 39 nM

B17: ySMB-4 (designed binder)
chain: VSSVPTKLEVVAATPTSLLISWDAPWAYSQSVAYYRITYGETGGNSPVQEFTVPGSSSTATISGLSPGVDYTITVYAYYGTPWGEGWYSWSPISINYRT
notes: as for B6
Kd [2]: 210 nM | Kd [3]: 210 nM

B18: ySMB-5 (designed binder)
chain: VSSVPTKLEVVAATPTSLLISWDAPANSVSYYRITYGETGGNSPVQEFTVPGSSSTATISGLSPGVDYTITVYAYEWYGWGWTYSPISINYRT
notes: as for B6
Kd [2]: 100 nM | Kd [3]: 100 nM

B19: ySMB-8 (designed binder)
chain: VSSVPTKLEVVAATPTSLLISWDAYVGYGSSVAYYRITYGETGGNSPVQEFTVPGSSSTATISGLSPGVDYTITVYAYYYEGDDLYSSMSPISINYRT
notes: as for B6
Kd [2]: 350 nM | Kd [3]: 350 nM

B20: ySMB-17 (designed binder)
chain: VSSVPTKLEVVAATPTSLLISWDASSSSVSYYRITYGETGGNSPVQEFTVPGSSSTATISGLSPGVDYTITVYAYIQYYDLYYASPISINYRT
notes: as for B6
Kd [3]: 40 nM

B21: ySMB-20 (designed binder)
chain: VSSVPTKLEVVAATPTSLLISWDAGYYMNYYMVDYYRITYGETGGNSPVQEFTVPGSSSTATISGLSPGVDYTITVYAYWYDEYGQYWWSESPISINYRT
notes: as for B6
Kd [3]: 66 nM

B22: ySMB-64 (designed binder)
chain: VSSVPTKLEVVAATPTSLLISWDASQFSGVSYYRITYGETGGNSPVQEFTVPGSYSTATISGLSPGVDYTITVYAYYHEHWGYYSYSPISINYRT
notes: as for B6
Kd [4]: 280 nM

B23: ySMB-67 (designed binder)
chain: VSSVPTKLEVVAATPTSLLISWDAGSFGFHDPVYYYRITYGETGGNSPVQEFTVPGSSSTATISGLSPGVDYTITVYAYYQYMDYYYSYSPISINYRT
notes: as for B6
Kd [4]: 1000 nM

B24: ySMB-91 (designed binder)
chain: VSSVPTKLEVVAATPTSLLISWDASYSSSSVSYYRITYGETGGNSPVQEFTVPGSSSTATISGLSPGVDYTITVYAYYYSYYYYYSYSPISINYRT
notes: as for B11
Kd [4]: 1000 nM

B25: SEQ ID NO 20 (designed binder)
chain: VSSVPTKLEVVAATPTSLLISWDAPAVTVLYYVITYGETGGNSPVQEFTVPGSKSTATISGLSPGVDYTITVYATDYGPGYPYESPISINYRT
binding result [6]: binds

B26: SEQ ID NO 21 (designed binder)
chain: VSSVPTKLEVVAATPTSLLISWDAPAVTVDLYHITYGETGGVWSGYQEFTVPGSKSTATISGLSPGVDYTITVYAVQHQEIWPYYYSPISINYRT
binding result [6]: binds

B27: SEQ ID NO 22 (designed binder)
chain: VSSVPTKLEVVAATPTSLLISWDAPAVTVDHYFITYGETGGSWSYYQEFAVPGSKSTATISGLSPGVDYTITVYAYSYEPYYYYNPISINYRT
binding result [6]: binds

B28: SEQ ID NO 23 (designed binder)
chain: VSSVPTKLEVVAATPTSLLISWDAPAVTVDFYVITYGETGSFSPPQEFTVPGSKSTATISGLSPGVDYTITVYAMMWGWEYYDYNISPISINYRT
binding result [6]: binds

B29: SEQ ID NO 24 (designed binder)
chain: VSSVPTKLEVVAATPTSLLISWDAPAVTVDLYIITYGETGSYHGWQTFTVPGSKSTATISGLSPGVDYTITVYADSSTWPYWYYSSPISINYRT
binding result [6]: binds

B30: SEQ ID NO 25 (designed binder)
chain: VSSVPTKLEVVAATPTSLLISWDAPAVTVDFYVITYGETGSFSPPQEFTVPGSKSTATISGLSPGVDYTITVYAMMWGWEYYDYNISPISINYRT
binding result [6]: binds

B31: SEQ ID NO 26 (designed binder)
chain: VSSVPTKLEVVAATPTSLLISWDAPAVTVDHYVITYGETGGVWYGYQEFTVPGSKSTATISGLSPGVDYTITVYAMTSYFQEYWSPISINYRT
binding result [6]: binds

B32: SEQ ID NO 27 (designed binder)
chain: VSSVPTKLEVVAATPTSLLISWDAPAVTVDFYVITYGETGSFSPPQEFTVPGSKSTATISGLSPGVDYTITVYAMMWGWEYYDYNISPISINYRT
binding result [6]: binds
